Results: publication PMC3985851 (Biochemistry, 2014)

Columns and labels:
Glu-plasminogen = test: SPR
[1] = molecular target: tissue plasminogen activator (tPA, Alteplase); test: SPR
micro(μ)-plasmin = micro(μ)-plasmin (human, UniProt P00747 561-580; P00747 581-810); test: SEC
micro(μ)-plasmin, sequence (P00747 561-580, chain 1 of 2): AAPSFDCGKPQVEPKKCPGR
micro(μ)-plasmin, sequence (P00747 581-810, chain 2 of 2): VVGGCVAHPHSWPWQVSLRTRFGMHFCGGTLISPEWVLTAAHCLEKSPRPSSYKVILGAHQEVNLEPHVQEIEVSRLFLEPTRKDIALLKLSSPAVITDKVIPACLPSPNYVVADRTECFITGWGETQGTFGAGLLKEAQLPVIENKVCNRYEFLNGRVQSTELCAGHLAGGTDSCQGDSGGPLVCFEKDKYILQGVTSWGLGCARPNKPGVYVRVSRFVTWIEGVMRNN

Glu-plasminogen, sequence (P00747 20-810): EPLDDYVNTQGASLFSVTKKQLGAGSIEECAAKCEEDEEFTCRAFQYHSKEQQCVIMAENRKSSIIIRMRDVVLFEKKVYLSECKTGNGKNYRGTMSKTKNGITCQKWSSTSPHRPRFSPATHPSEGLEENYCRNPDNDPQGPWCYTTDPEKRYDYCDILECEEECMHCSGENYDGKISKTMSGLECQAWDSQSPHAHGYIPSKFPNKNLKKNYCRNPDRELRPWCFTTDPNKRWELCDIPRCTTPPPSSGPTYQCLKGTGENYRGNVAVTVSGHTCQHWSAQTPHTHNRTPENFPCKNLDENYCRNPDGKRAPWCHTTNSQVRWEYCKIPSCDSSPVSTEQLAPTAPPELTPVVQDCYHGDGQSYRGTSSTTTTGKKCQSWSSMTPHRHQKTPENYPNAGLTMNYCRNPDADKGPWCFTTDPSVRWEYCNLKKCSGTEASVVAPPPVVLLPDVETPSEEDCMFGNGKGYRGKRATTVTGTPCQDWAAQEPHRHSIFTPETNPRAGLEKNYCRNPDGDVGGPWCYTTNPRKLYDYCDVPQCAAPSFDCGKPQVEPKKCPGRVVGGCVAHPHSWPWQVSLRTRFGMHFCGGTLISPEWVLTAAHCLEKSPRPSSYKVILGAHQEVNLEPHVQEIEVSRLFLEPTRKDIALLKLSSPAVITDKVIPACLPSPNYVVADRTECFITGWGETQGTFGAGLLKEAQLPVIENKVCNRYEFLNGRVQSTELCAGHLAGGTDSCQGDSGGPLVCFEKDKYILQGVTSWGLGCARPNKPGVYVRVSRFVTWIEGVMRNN

Row | Binder | Kd (Glu-plasminogen) | RU at 1 μM analyte (Glu-plasminogen) | koff (Glu-plasminogen) | kon (Glu-plasminogen) | Kd [1] | RU at 1 μM analyte [1] | koff [1] | kon [1] | binding result (micro(μ)-plasmin)
1 | KD1_(L17R)-KT (Kunitz domain 1 of tissue factor pathway inhibitor-2, Leu17Arg, with C-terminal lysine) (domain or fragment, human, UniProt P48307 30-94, looked up) GNNAEICLLPLDYGPCRARLLRYYYDRYTQSCRQFLYGGCEGNANNFYTWEACDDACWRIEKVPK | 280 nM | 86 RU | 0.00031 s⁻¹ | 1100 M⁻¹ s⁻¹ | 210 nM | 155 RU | 0.00019 s⁻¹ | 910 M⁻¹ s⁻¹ | binds
2 | KD1_(L17R)-VT (Kunitz domain 1 of tissue factor pathway inhibitor-2, Leu17Arg, with C-terminal valine) (domain or fragment, human) GSHMDAAQEPTGNNAEICLLPLDYGPCRARLLRYYYDRYTQSCRQFLYGGCEGNANNFYTWEACDDACWRIEKVPKV |  | 12 RU |  |  |  |  |  |  | binds
